This data set addresses T1, MutS (Escherichia coli, UniProt P23909 1-853).
T1 sequence: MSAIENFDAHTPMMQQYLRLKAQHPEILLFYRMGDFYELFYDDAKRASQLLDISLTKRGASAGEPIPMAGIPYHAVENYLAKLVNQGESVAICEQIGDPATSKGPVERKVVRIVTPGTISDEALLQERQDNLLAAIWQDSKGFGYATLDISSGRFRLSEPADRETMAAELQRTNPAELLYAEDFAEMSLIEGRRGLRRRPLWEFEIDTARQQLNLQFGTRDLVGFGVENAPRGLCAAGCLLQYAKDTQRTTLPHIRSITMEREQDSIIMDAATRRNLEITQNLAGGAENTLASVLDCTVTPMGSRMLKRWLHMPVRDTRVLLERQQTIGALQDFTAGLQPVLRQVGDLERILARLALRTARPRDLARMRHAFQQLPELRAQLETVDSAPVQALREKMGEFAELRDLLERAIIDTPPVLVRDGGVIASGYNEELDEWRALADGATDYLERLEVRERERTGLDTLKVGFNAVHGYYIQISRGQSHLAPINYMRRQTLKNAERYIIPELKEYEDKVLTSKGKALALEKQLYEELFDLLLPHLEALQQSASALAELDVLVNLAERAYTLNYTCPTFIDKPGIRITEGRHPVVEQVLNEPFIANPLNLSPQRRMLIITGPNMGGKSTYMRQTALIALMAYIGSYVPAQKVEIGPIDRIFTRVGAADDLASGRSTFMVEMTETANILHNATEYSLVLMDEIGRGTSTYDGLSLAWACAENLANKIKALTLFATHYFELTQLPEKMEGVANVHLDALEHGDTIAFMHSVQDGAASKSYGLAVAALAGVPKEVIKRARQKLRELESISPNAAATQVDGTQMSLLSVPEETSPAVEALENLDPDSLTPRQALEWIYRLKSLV
Nature of the data set: EMSA (Scatchard); 1 mM ADP, 5 mM Mg2+; EMSA: 20 mM HEPES pH 8.0, 125 mM KCl, 1 mM ADP, 5 mM MgCl2, 1 mg/ml BSA, 9% glycerol, 37 C 20 min (gel at 4 C); fluorescence: 25 mM Tris-HCl pH 7.5, 125 mM KCl, 5 mM MgCl2, 1 mM ADP, 20 C. The following applies: protein: recombinant, tags: His-tag (Ni-NTA purified), chain copies: 2, label: 5'-32P, blunt.

The values below come from PMC4136841, “Is Thymidine Glycol Containing DNA a Substrate of E. coli DNA Mismatch Repair System?”.

Changes are numbered by the printed parent chain.

B1: duplex I (G/C) (dsDNA)
DNA 1: CAAGCCTATGCCCTCAGCACCCAGGGTGCC
DNA 2: GGCACCCTGGGTGCTGAGGGCATAGGCTTG
As usually defined, the Kd is the free concentration of one partner at which half of the binding sites on the other are occupied at equilibrium, for simple one-to-one binding. Take B1: the Kd was found to be 32 ± 3.3 nM.

B2: duplex IV (A/Tg) (dsDNA)
DNA 1: B1 DNA 1 with G24A
DNA 2: B1 DNA 2 with C7T
modifications: thymidine glycol (5R,6S) at T7 of strand 2
For the molecule B2, the Kd (strand 1 A24 : strand 2 Tg7) was 25 ± 3 nM.

B3: duplex II (G/T) (dsDNA)
DNA 1: B1 DNA 1
DNA 2: B1 DNA 2 with C7T
Regarding B3, the Kd (G/T mismatch strand 1 G24 : strand 2 T7) was 7 ± 1.5 nM.

B4: duplex III (G/Tg) (dsDNA)
DNA 1: B1 DNA 1
DNA 2: B1 DNA 2 with C7T
modifications: thymidine glycol (5R,6S) at T7 of strand 2
As for B4, the equilibrium dissociation constant (Kd) (strand 1 G24 : strand 2 Tg7) stood at 44 ± 2.3 nM.
